Blank lines part the entries; values can stand above or below the binder they belong to.
Assays:
[1] = target: T1, polypeptide comprising the amino acid sequence set forth in SEQ ID NO: 269 (human); test: ELISA on immobilized synthetic CAPRIN-1 peptides, culture supernatant
T1 peptide: PPVNEPETLKQQNQYQAS

[2] = target: T2, CAPRIN-1 protein expressed on the cell surface of human cancer cells (human, UniProt Q14444 2-709); test: cell-based or functional assay
T2 sequence (looked up): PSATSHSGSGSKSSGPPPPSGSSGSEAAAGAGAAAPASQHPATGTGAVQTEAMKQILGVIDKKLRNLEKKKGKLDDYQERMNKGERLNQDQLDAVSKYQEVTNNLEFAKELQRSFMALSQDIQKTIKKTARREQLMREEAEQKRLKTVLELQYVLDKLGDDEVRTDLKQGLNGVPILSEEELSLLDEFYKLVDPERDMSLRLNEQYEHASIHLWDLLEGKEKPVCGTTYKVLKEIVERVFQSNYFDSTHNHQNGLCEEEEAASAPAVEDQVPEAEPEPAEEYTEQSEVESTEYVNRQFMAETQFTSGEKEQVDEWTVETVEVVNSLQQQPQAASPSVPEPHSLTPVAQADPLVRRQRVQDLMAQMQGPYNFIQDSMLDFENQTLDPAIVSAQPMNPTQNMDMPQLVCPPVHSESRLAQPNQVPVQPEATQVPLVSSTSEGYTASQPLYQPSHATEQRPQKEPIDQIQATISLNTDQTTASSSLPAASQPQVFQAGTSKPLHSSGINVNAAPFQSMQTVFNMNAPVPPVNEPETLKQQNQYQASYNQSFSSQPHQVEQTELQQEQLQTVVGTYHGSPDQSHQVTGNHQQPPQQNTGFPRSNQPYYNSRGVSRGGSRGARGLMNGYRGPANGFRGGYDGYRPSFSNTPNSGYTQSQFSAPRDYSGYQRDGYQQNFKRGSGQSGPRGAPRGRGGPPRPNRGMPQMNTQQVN

[3] = target: T3, polypeptide set forth in SEQ ID NO: 266 (human); test: ELISA on immobilized synthetic CAPRIN-1 peptides, culture supernatant
T3 construct: Identified from ELISA on 93 synthetic peptides of 12 to 16 amino acids of human CAPRIN-1
T3 peptide: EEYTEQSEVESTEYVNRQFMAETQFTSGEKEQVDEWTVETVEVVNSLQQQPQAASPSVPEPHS

[4] = target: T4, peptide set forth in SEQ ID NO: 267 (human); test: as above
T4 peptide: QQPQAASPSVPE

[5] = target: T2, CAPRIN-1 protein expressed on the cell …; test: flow cytometry, TGBC14TKB cells, culture supernatant, isotype control antibody as control
Method: Subsequently, a gallbladder cell line TGBC14TKB, which was confirmed to express a CAPRIN-1 gene, was investigated for whether or not a CAPRIN-1 protein is expressed on the surfaces of these cells. 1×10⁶ cells of TGBC14TKB were centrifuged with a 1.5-mL micro centrifugation tube. To the cells was added the culture supernatant (100 μL) containing any of anti-CAPRIN-1 mouse monoclonal antibodies #1 to #22 reacting to cancer cell surface produced in Example 4 and anti-CAPRIN-1 mouse-chicken chimeric antibodies #1 to #3 produced in the above (2), followed by being left to stand on ice for 1 hour. After washing with PBS, the cells were suspended in a FITC-labeled goat anti-mouse IgG antibody (manufactured by life technologies) diluted by 500-fold with PBS containing 0.1% FBS, followed by being left to stand on ice for 1 hour. After washing with PBS, the fluorescence intensity was measured with FACS Calibur available from Becton, Dickinson and Company. Separately, as a control, the same procedure as in above was performed using an iso-type control antibody, instead of the culture supernatants containing the anti-CAPRIN-1 mouse monoclonal antibodies #1 to #22 and the mouse-chicken chimeric antibodies #1 to #3. As a result, the fluorescence intensity in the cells to which any of the monoclonal antibodies #1 to #22 and the mouse-chicken chimeric antibodies #1 to #3 was added was 20% or more higher than that in the control in every case. Specifically, in the case of using mouse-chicken chimeric antibody #1, the fluorescence intensity was enhanced by 200% or more. […] The rate of increase in the fluorescence intensity is represented by the rate of increase in the mean fluorescence intensity (MFI value) in each cell and is calculated by the following calculation formula: […]

[6] = target: T5, polypeptide set forth in SEQ ID NO: 430 (human); test: ELISA on 93 immobilized synthetic peptides of human CAPRIN-1, purified antibody 0.1 ug/mL
T5 peptide: ATQVPLVSSTSEGYTA
Method: Candidate peptides (93 peptides) each consisting of 12 to 16 amino acids of the amino acid sequence of the human CAPRIN-1 protein were synthesized and were each dissolved at a concentration of 1 mg/mL in DMSO. Each peptide was dissolved at a concentration of 30 μg/mL in a 0.1 M sodium carbonate buffer (pH 9.6). The solution was added to a 96-well plate (manufactured by Nunc, Product No. 436006) at 100 μL per well, followed by being left to stand at 4° C. overnight. The solution was removed, and 200 μL of 10 mM ethanolamine/0.1 M sodium carbonate buffer (pH 9.6) was added to each well, followed by being left to stand at room temperature for 1 hour. The solution was removed, and each well was washed with PBS containing 0.5% Tween 20 (PBST) twice to prepare a peptide-immobilized plate. For confirmation, this plate was also provided with a well to which the CAPRIN-1 protein was immobilized in accordance with the method described above. Rabbit anti-CAPRIN-1 monoclonal antibody #1 purified to a concentration of 0.1 ug/mL by a usual method was added to the plate at an amount of 50 μL per well, followed by shaking at room temperature for 1 hour. The solution was removed, and each well was washed with PBST three times. […] The absorbance was measured at 450 nm and 595 nm with an absorption spectrometer. […]

[7] = target: T5, polypeptide set forth in SEQ ID NO: 430; test: ELISA as in Example 13(1), purified antibody
[8] = target: T6, peptide set forth in SEQ ID NO: 268 (human); test: ELISA on immobilized synthetic CAPRIN-1 peptides, culture supernatant
T6 peptide: FTSGEKEQVDEW

[9] = target: T7, polypeptide set forth in SEQ ID NO: 431 (human); test: as above
T7 peptide: VERVFQSNYFDSTHNH

[10] = target: T2, CAPRIN-1 protein expressed on the cell …; test: flow cytometry, TGBC14TKB cells, antibody 20 ug/mL, secondary antibody only as control
Method: (§1) A human gallbladder cancer cell line TGBC14TKB was investigated whether or not a CAPRIN-1 protein is expressed on the cell surface. 5×10⁵ cells of the gallbladder cancer cell line were centrifuged with a 1.5-mL micro centrifugation tube. The cells were subjected to reaction with each mouse anti-CAPRIN-1 antibody at a final concentration of 20 μg/mL, followed by being left to stand on ice for 1 hour. After washing with PBS, the cells were reacted with a 100-fold diluted Alexa488-labeled goat anti-mouse IgG antibody (manufactured by life technologies), followed by being left to stand on ice for […]. After washing with PBS, the fluorescence intensity was measured with FACS Calibur available from Becton, Dickinson and Company. As a negative control, only the secondary antibody was used in the reaction.
as §1, with “cell surface using mouse anti-CAPRIN-1 monoclonal antibodies #30 to #36.” for “cell surface.”, “of TGBC14TKB” for “of the gallbladder cancer cell line”, “each of” for “each”, “anti-CAPRIN-1 antibodies #30 to #36” for “anti-CAPRIN-1 antibody”, “Company. Separately, the cells were subjected to reaction with” for “Company. As a negative control,”, “antibody as a negative control.” for “antibody was used in the reaction.”

B1: human-chicken chimeric antibody #3 (antibody, human IgG1, kappa, V domains shown)
VH: AVTLDESGGGLQTPGGALSLVCKASGFTFSGYDMLWVRQAPGKGLEWVAGIGSTGGGTDYGAAVKGRATISRDNGQSTVRLQLNNLRAEDTATYYCAKVAGGCNSGYCRDSPGSIDAWGHGTEVIVSA
VL: AVTQQPASVSANPGETVKITCSGGGSRNYYGWYQQKSPGSVPVTVIYYDDQRPSNIPSRFSGALSGSTSTLTITGVQADDEAVYFCGSADSNTYEGSFGAGTTLTVLT
notes: Produced 'similarly' to human-chicken chimeric antibody #1 from chicken monoclonal antibody #3; also called human-chicken chimeric monoclonal antibody #3
binding result [1]: binds
cytotoxicity (ADCC, 51Cr release) on TGBC14TKB, human NK cells [2]: ≥ 15%

B2: mouse monoclonal antibody #4 (antibody, V domains shown)
VH: GAELVRSGASVKMSCKASGYSFTDYNMYWVKQTPGQGLEWIGYIYPGNGGTNYNQKFKGKATLTADTSSSTAYMQISSLTSEDSAVYFCARDYDDGGYAMDYWGQGTTVTVSS
VL: DIQMTQSPASLSASVGETVTITCRASGNIHNYLTWYQQKQGKSPQLLVYNAKTLADGVPSRFSGSGSGTQYSLKINRLQPEDFGSYYCQHFWNIPWTFGGGTKLNSR
notes: mouse hybridoma antibody; also called anti-CAPRIN-1 mouse monoclonal antibody #4; anti-CAPRIN-1 monoclonal antibody #4
binding result [3]: binds
binding result [4]: binds
cytotoxicity (ADCC, 51Cr release) on TGBC14TKB, human NK cells [2]: ≥ 15%
rate of increase in mean fluorescence intensity over control [5]: ≥ 20%

B3: rabbit anti-CAPRIN-1 monoclonal antibody #1 (antibody, V domains shown)
VH: QSLEESGGDLVKPGASLTLTCTASGFSFSGSYYMSWVRQAPGKGLEWIAYIYIGDGVTAYANWAKGRFTISKASSTTVTLQMTSLTAADTATYFCARGNKLWGPGTLVTVSS
VL: DVVMTQTPASVEAAVGGTVTIKCQASQSISSYLAWYQQKPGQPPKRLIYDASNLDSGVPSRFKGSGSGTDFTITISDLECADAATYYCQCTAVSSATIYGNAFGGGTEVVVK
notes: rabbit hybridoma antibody
binding result [6]: binds

B4: human-rabbit chimeric anti-CAPRIN-1 antibody #1 (antibody, V domains shown)
VH: B3 VH
VL: B3 VL
notes: also called human-rabbit chimeric anti-CAPRIN-1 monoclonal antibody #1
binding result [7]: binds

Continued, in another order:

binding result [3]: binds
binding result [8]: binds
rate of increase in mean fluorescence intensity over control [5]: ≥ 20%
B5: mouse monoclonal antibody #5 (antibody, V domains shown)
VH: DAELVKPGASVKISCKASGYTFTDHSIHWVQQKPEQGLEWIGYISPGNGNIKYNEKFKGKATLTADKSSSTAYMQLNSLTSEDSAVYFCKRSLGRGGPYYFDYWGQGTTVTVSS
VL: DIVLTQAAPSLPVTPGESVSISCRSSKSLLHSNGNTYLYWFLQRPGQSPQLLIYRMSNLASGVPDRFSGSGSGTAFTLRISRVEAEDVGVYYCMQHREYPVTFGSGPN
notes: mouse hybridoma antibody; also called anti-CAPRIN-1 mouse monoclonal antibody #5; anti-CAPRIN-1 monoclonal antibody #5
cytotoxicity (ADCC, 51Cr release) on TGBC14TKB, human NK cells [2]: ≥ 15%

binding result [3]: binds
binding result [4]: binds
B6: human-chicken chimeric antibody #1 (antibody, human IgG1, kappa, V domains shown)
VH: AVTLDESGGGLQMSRGGLSLVCKASGFDFSSYQMNWIRQAPGKGLEFVAAINKFGNSTGHGAAVKGRVTISRDNGQSTVRLQLNNLRAEDTAIYFCTKHAYGYCGSGTWCAAGEIDAWGHGTEVIVSS
VL: QAASTQPSSVSANPGETVEITCSGGGSYSYGWFQQKSPGSAPVTVIYYNNKRPSDIPSRFSGSKSGSTGTLTITGVQADDEAVYYCGSGDSTDTAVFGAGTTLTVLG
notes: also called human-chicken chimeric monoclonal antibody #1
cytotoxicity (ADCC, 51Cr release) on TGBC14TKB, human NK cells [2]: 20%

binding result [9]: binds
increase in fluorescence intensity over control [10]: ≥ 35%
B7: mouse anti-CAPRIN-1 antibody #34 (antibody, V domains shown)
VH: GAELVRPGTSVKVSCKASVYAFTNYLIEWVKQRPGQGLEWIGVINPKSGGTKYNEKFRGKATLTADKSSSTAYMQLSSLTSGDSAVYFCAITGTDYWGQGTTLTVSS
VL: QGTRCDIQMTQTTSSLSASLGDRVTISCSASQGINNYLNWYQQKPDGTVKLLIYYTSSLRSGVPSRFSGSGSGTDYSLTISNLEPEDVATYYCQQYSKLPRTFGGGTKLEIKR
notes: mouse hybridoma antibody; also called mouse anti-CAPRIN-1 monoclonal antibody #34; mouse anti-CAPRN-1 antibody #34
